B1: Tgf2 left end 50 bp probe (dsDNA)
DNA 1: CAGAGGTGTAAAAGTACTTAAGTAATTTTACTTGATTACTGTACTTAAGT
DNA 2: ACTTAAGTACAGTAATCAAGTAAAATTACTTAAGTACTTTTACACCTCTG
B2: Tgf2 right end 50 bp probe (dsDNA)
DNA 1: CAGAGGTGTAAAAGTACTAAAAATATTTACTAAAGTGAAAGTACAAGTAT
DNA 2: ATACTTGTACTTTCACTTTAGTAAATATTTTTAGTACTTTTACACCTCTG

Tests used:
[1] = test system: T1, gfTP1 transposase (Tgf2 transposase, 686 aa, recombinant 720 aa) (Carassius auratus); test: cell_activity; conditions: genomic integration rate in one-year-old blunt snout bream (35/77) vs 10% with donor plasmid only; 8-bp direct repeats at insertion sites
T1 sequence: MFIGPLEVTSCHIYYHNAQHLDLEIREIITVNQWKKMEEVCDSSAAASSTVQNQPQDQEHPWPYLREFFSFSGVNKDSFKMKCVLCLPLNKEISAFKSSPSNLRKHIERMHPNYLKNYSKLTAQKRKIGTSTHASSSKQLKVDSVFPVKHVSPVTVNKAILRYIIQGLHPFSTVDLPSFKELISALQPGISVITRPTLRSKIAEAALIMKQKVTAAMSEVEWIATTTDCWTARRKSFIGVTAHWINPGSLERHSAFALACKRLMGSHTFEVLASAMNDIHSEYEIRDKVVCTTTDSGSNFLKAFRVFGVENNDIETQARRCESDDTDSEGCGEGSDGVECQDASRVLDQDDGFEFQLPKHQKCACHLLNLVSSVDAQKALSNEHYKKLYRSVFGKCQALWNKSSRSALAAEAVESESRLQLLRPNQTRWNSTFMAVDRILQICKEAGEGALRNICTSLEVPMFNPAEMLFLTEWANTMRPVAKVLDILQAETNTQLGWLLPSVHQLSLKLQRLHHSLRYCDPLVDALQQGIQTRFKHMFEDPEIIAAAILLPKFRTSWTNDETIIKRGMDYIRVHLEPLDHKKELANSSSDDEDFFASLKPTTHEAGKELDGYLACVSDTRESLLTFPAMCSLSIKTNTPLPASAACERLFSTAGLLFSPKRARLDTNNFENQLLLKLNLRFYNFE

[2] = biological target: T2, gfTP1 transposase (Tgf2 transposase, 686 aa, recombinant 720 aa) (Carassius auratus); test: EMSA; 25 C, 0.5-1 h; 1x protein shifts probe, 10x gives slower complex (oligomer); control cold probe no signal; conditions: tags: N-terminal 34 aa His6-containing tag from pET-28a, E. coli Rosetta 1(DE3); label: biotin
T2 chain: T1 sequence
Method: The 50 by sequences of left and right ends of goldfish Tgf2 transposon labeled by biotin were used as probes. The DNA binding activity was verified by EMSA, using non-denaturing polyacrylamide gel electrophoresis at 80 V for 1.0 h. Lane 1: biotin-labeled probes based on left (or right) end; Lane 2: the supernatant of cells without IPTG induction; Lane 3: co-incubation complex of biotin-labeled cold probes for control and the purified recombinant goldfish gfTP1 transposase; Lane 4: co-incubation complex of biotin-labeled probes based on Tgf2 left (or right) end and the purified 1× recombinant goldfish gfTP1 transposase; Lane 5: co-incubation complex of biotin-labeled probes based on Tgf2 left (or right) end and the purified 10× recombinant goldfish gfTP1 transposase.

Molecule	activity [1] [%]	binding result [2]
donor plasmid pTgf2-zfβ-actin-eGFP	45	–
B1	–	binds
B2	–	binds

— patent US20160215299, “EXPRESSION METHOD OF ACTIVE GOLDFISH TGF2 TRANSPOSON RECOMBINANT TRANSPOSASE PROTEIN” (Shanghai Ocean University, published 2016)
